Measured values reported in patent publication US20250340902A1, “GENE THERAPY FOR BVES-RELATED DISORDERS” (OHIO STATE INNOVATION FOUNDATION, priority 2022, published 2025).

Tests used:
Test in all cases: anti-HA co-IP from muscle, MS; CTRL 0
Dysferlin (Mus musculus) = Dysferlin (Mus musculus) (UniProt Q9ESD7)
[1] = target: Monocarboxylate transporter 4 (Mus musculus) (UniProt P57787)
[2] = target: 40S ribosomal protein S27 (Mus musculus) (UniProt Q6ZWU9)
[3] = target: ATPase family AAA domain-containing protein 3 (Mus musculus) (UniProt Q925I1)
[4] = target: Charged multivesicular body protein 4b (Mus musculus) (UniProt Q9D8B3)
[5] = target: Coatomer subunit delta (Mus musculus) (UniProt Q5XJY5)
[6] = target: Alanine--tRNA ligase, cytoplasmic (Mus musculus) (UniProt Q8BGQ7)
[7] = target: Anoctamin-5 (Mus musculus) (UniProt Q75UR0)
[8] = target: NADH dehydrogenase [ubiquinone] flavoprotein 1, mitochondrial (Mus musculus) (UniProt Q91YT0)
[9] = target: Carboxypeptidase N catalytic chain (Mus musculus) (UniProt Q9JJN5)
Chain of Carboxypeptidase N catalytic chain (Mus musculus) (Q9JJN5 24-457 limits assumed): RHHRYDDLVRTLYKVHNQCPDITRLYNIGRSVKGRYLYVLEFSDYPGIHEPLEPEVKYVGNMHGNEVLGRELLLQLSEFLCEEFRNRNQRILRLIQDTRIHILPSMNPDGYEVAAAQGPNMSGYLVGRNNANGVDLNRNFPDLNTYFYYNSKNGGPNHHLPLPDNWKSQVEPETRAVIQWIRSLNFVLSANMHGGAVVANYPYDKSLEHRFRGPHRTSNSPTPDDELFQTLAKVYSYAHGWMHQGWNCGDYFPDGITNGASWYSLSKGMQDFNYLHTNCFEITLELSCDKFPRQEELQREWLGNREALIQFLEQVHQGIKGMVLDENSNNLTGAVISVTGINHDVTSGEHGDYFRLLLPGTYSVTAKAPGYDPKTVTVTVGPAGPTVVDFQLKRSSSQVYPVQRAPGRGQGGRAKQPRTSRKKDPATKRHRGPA

[10] = target: Ribosomal protein S6 kinase alpha-2 (Mus musculus) (UniProt Q9WUT3)
[11] = target: F-box only protein 40 (Mus musculus) (UniProt P62932)
[12] = target: Sodium/calcium exchanger 3 (Mus musculus) (UniProt S4R2P9)
[13] = target: ATP-sensitive inward rectifier potassium channel 11 (Mus musculus) (UniProt Q61743)
Chain of ATP-sensitive inward rectifier potassium channel 11 (Mus musculus) (Q61743 whole entry): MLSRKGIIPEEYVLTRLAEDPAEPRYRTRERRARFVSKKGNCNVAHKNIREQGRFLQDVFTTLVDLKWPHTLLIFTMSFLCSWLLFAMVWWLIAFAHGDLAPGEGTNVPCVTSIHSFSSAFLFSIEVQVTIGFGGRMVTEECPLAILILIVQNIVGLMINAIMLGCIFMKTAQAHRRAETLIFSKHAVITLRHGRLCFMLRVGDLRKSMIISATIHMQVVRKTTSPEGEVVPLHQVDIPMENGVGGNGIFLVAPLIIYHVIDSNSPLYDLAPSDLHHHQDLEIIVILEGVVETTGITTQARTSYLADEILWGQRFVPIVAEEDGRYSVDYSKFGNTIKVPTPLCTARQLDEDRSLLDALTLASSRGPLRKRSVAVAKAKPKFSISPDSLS

[14] = target: Probable ubiquitin carboxyl-terminal hydrolase FAF-X (Mus musculus) (UniProt P70398)
[15] = target: MAP7 domain-containing protein 1 (Mus musculus) (UniProt A2AJI0)
[16] = target: Nuclear speckle splicing regulatory protein 1 (Mus musculus) (UniProt Q5NCR9)
[17] = target: Glutathione S-transferase LANCL1 (Mus musculus) (UniProt O89112)
Chain of Glutathione S-transferase LANCL1 (Mus musculus) (O89112 2-399 limits assumed): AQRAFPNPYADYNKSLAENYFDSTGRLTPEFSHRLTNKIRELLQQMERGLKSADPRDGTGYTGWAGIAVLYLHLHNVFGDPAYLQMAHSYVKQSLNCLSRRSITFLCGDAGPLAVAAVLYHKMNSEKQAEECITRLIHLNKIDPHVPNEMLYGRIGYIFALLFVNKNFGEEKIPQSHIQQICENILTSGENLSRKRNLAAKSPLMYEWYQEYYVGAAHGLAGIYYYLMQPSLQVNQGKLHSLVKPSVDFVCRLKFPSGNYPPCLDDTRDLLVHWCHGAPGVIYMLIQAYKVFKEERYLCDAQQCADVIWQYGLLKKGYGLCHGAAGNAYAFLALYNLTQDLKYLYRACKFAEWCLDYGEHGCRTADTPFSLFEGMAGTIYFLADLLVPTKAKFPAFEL

[18] = target: Heterogeneous nuclear ribonucleoprotein L (Mus musculus) (UniProt Q8R081)
Chain of Heterogeneous nuclear ribonucleoprotein L (Mus musculus) (Q8R081 whole entry, the tested form may be a part): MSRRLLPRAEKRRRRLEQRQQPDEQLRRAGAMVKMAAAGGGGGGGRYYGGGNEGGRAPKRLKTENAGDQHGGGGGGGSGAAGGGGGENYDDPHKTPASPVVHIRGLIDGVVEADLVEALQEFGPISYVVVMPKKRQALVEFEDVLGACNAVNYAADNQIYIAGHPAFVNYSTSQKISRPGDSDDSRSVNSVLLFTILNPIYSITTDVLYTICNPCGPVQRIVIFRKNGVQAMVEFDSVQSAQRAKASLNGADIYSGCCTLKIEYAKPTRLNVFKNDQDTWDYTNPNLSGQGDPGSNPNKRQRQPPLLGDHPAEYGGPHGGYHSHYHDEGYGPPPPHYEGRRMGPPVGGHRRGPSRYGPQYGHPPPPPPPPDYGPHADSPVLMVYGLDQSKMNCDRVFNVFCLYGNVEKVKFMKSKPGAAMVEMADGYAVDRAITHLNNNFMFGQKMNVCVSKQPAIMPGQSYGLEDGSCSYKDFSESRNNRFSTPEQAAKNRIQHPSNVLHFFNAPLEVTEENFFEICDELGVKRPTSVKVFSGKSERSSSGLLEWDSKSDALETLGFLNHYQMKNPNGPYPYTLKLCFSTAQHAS

[19] = target: Popeye domain-containing protein 2 (Mus musculus) (UniProt Q9ES82)
Chain of Popeye domain-containing protein 2 (Mus musculus) (Q9ES82 whole entry, the tested form may be a part): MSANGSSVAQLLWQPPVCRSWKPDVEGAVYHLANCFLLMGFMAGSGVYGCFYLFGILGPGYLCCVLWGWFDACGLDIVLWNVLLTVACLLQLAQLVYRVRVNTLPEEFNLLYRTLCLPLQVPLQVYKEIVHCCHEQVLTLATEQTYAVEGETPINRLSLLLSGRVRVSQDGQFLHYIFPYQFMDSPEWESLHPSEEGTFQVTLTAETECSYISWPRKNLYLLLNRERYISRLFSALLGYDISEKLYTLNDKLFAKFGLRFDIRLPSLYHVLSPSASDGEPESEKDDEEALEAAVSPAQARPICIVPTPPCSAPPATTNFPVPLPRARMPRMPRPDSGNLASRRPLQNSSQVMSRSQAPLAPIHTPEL

[20] = target: 60S ribosomal protein L15 (Mus musculus) (UniProt Q9CZM2)
[21] = target: Eukaryotic translation initiation factor 3 subunit H (Mus musculus) (UniProt Q91WK2)
[22] = target: Dystrobrevin alpha (Mus musculus) (UniProt Q9D2N4)
[23] = target: Sodium/calcium exchanger 1 (Mus musculus) (UniProt P70414)
[24] = target: Splicing factor 3A subunit 1 (Mus musculus) (UniProt Q8K4Z5)
Chain of Splicing factor 3A subunit 1 (Mus musculus) (Q8K4Z5 whole entry): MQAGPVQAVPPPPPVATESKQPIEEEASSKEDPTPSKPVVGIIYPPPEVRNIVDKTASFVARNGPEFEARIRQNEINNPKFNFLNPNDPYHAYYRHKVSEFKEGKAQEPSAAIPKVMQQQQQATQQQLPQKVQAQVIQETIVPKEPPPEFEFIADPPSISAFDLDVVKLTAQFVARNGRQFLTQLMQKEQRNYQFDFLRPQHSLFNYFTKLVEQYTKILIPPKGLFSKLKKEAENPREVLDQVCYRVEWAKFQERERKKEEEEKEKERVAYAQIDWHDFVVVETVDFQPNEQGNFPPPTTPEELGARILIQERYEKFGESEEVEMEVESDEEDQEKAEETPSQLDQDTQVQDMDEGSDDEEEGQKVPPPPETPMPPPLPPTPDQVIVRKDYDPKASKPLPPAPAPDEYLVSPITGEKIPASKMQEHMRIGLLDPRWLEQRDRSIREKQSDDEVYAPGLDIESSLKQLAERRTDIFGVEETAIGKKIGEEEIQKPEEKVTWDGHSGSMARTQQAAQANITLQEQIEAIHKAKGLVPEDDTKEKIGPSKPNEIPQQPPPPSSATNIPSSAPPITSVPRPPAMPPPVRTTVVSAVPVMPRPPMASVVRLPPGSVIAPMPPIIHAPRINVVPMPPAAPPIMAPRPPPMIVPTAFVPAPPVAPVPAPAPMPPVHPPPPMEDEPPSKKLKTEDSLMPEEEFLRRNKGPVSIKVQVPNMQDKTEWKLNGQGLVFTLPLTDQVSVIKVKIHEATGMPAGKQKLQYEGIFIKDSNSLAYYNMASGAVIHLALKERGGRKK

[25] = target: Protein phosphatase 1 regulatory subunit 3A (Mus musculus) (UniProt Q99MR9)
Basigin (Mus musculus) = Basigin (Mus musculus) (UniProt P18572)
[26] = target: Glutamate dehydrogenase 1, mitochondrial (Mus musculus) (UniProt P26443)
Cullin-1 (Mus musculus) = Cullin-1 (Mus musculus) (UniProt Q9WTX6)
Chain of Cullin-1 (Mus musculus) (Q9WTX6 whole entry): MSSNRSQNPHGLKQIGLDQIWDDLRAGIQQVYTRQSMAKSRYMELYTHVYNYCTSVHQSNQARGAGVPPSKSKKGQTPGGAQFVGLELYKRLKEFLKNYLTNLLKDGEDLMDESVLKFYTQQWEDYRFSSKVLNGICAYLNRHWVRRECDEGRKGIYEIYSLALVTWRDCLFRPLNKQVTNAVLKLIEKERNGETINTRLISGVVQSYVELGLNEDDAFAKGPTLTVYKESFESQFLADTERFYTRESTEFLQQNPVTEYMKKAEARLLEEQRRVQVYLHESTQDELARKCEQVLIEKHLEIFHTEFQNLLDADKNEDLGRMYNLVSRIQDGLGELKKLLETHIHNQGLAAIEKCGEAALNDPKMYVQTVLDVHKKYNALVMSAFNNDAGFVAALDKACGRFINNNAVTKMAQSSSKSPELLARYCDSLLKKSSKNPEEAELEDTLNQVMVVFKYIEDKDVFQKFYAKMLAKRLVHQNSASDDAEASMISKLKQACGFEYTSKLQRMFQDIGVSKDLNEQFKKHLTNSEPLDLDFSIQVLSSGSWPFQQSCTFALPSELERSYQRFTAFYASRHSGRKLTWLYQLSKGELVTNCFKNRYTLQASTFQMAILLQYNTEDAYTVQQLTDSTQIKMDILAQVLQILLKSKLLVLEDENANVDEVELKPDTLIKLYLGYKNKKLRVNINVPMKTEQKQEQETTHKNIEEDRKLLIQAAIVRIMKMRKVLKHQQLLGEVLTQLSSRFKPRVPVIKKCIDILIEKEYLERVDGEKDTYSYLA

[27] = target: DnaJ homolog subfamily B member 2 (Mus musculus) (UniProt Q9QYI5)
Chain of DnaJ homolog subfamily B member 2 (Mus musculus) (Q9QYI5 2-321 limits assumed): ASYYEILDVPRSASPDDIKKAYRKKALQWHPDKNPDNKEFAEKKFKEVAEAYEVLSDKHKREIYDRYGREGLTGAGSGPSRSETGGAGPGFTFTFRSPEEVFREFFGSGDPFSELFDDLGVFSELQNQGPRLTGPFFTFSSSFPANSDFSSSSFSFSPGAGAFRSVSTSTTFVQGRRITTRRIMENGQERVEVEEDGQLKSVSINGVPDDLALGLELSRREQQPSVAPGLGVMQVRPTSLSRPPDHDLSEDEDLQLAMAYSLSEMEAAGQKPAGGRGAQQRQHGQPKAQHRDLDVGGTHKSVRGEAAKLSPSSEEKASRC

[28] = target: Band 3 anion transport protein (Mus musculus) (UniProt P04919)
[29] = target: LEM domain-containing protein 2 (Mus musculus) (UniProt Q6DVA0)
[30] = target: Cell cycle progression protein 1 (Mus musculus) (UniProt Q640L3)
Sarcospan (Mus musculus) = Sarcospan (Mus musculus) (UniProt Q62147)
[31] = target: RNA methyltransferase 10 homolog C (Mus musculus) (UniProt Q3UFY8)
[32] = target: Sodium channel protein type 4 subunit alpha (Mus musculus) (UniProt Q9ER60)
[33] = target: Casein kinase II subunit alpha (Mus musculus) (UniProt Q60737)
[34] = target: Chromatin-remodeling ATPase INO80 (Mus musculus) (UniProt Q6ZPV2)
[35] = target: DnaJ homolog subfamily B member 12 (Mus musculus) (UniProt Q9QYI4)
Chain of DnaJ homolog subfamily B member 12 (Mus musculus) (Q9QYI4 whole entry): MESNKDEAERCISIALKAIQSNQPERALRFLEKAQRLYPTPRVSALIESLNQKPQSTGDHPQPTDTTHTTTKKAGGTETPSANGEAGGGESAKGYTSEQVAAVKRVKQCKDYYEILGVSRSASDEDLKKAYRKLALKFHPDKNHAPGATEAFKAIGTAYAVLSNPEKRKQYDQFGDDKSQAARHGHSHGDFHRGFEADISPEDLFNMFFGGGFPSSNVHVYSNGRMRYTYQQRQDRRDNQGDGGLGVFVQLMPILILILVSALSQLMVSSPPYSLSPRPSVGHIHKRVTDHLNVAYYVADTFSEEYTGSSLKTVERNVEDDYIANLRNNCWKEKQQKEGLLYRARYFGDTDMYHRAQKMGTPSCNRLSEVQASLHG

Chain of human BVES fused with 3xHA tag (Q8NE79 other isoform, or with tags, fused parts or gaps limits assumed): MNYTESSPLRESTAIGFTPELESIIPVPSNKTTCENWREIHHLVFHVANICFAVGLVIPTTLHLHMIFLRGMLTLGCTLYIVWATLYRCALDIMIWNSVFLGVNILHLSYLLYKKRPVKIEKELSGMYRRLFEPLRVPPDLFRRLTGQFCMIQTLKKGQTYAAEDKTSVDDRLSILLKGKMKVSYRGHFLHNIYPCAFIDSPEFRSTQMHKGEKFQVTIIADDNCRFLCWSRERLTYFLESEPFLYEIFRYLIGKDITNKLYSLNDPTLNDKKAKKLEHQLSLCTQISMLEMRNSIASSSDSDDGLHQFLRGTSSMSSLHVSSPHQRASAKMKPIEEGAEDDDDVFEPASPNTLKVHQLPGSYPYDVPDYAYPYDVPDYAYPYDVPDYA

AAV9-BVES-HA (IP-MS count) (Dysferlin (Mus musculus)): 12 | AAV9-BVES-HA (IP-MS count) [1]: 12 | AAV9-BVES-HA (IP-MS count) [2]: 2 | AAV9-BVES-HA (IP-MS count) [3]: 3 | AAV9-BVES-HA (IP-MS count) [4]: 2 | AAV9-BVES-HA (IP-MS count) [5]: 2 | AAV9-BVES-HA (IP-MS count) [6]: 4 | AAV9-BVES-HA (IP-MS count) [7]: 2 | AAV9-BVES-HA (IP-MS count) [8]: 3 | AAV9-BVES-HA (IP-MS count) [9]: 4 | AAV9-BVES-HA (IP-MS count) [10]: 12 | AAV9-BVES-HA (IP-MS count) [11]: 2 | AAV9-BVES-HA (IP-MS count) [12]: 3 | AAV9-BVES-HA (IP-MS count) [13]: 4 | AAV9-BVES-HA (IP-MS count) [14]: 3 | AAV9-BVES-HA (IP-MS count) [15]: 2 | AAV9-BVES-HA (IP-MS count) [16]: 2 | AAV9-BVES-HA (IP-MS count) [17]: 2 | AAV9-BVES-HA (IP-MS count) [18]: 2 | AAV9-BVES-HA (IP-MS count) [19]: 29 | AAV9-BVES-HA (IP-MS count) [20]: 4 | AAV9-BVES-HA (IP-MS count) [21]: 2 | AAV9-BVES-HA (IP-MS count) [22]: 4 | AAV9-BVES-HA (IP-MS count) [23]: 2 | AAV9-BVES-HA (IP-MS count) [24]: 4 | AAV9-BVES-HA (IP-MS count) [25]: 12 | AAV9-BVES-HA (IP-MS count) (Basigin (Mus musculus)): 4 | AAV9-BVES-HA (IP-MS count) [26]: 6 | AAV9-BVES-HA (IP-MS count) (Cullin-1 (Mus musculus)): 2 | AAV9-BVES-HA (IP-MS count) [27]: 2 | AAV9-BVES-HA (IP-MS count) [28]: 4 | AAV9-BVES-HA (IP-MS count) [29]: 2 | AAV9-BVES-HA (IP-MS count) [30]: 2 | AAV9-BVES-HA (IP-MS count) (Sarcospan (Mus musculus)): 2 | AAV9-BVES-HA (IP-MS count) [31]: 2 | AAV9-BVES-HA (IP-MS count) [32]: 19 | AAV9-BVES-HA (IP-MS count) [33]: 2 | AAV9-BVES-HA (IP-MS count) [34]: 2 | AAV9-BVES-HA (IP-MS count) [35]: 2
Substance: human BVES fused with 3xHA tag (from UniProt Q8NE79 1-360)
